What is called stoichiometry N is a count of units in the complex or per binding partner.

This note sets out measurements from article PMC5755706 (Nature structural & molecular biology, 2017).

Series [1] has as its target human TRF2^TRFH (human) (UniProt Q15554). As to the kind of experiment: flow cytometry protein interaction assay. A general note: Flow cytometry measures light scatter and fluorescence of single cells or particles in a stream.
Series [2] concerns the molecule itself. As to the kind of experiment: crystal structure.
Series [3] deals with T1, MBP-tagged TERB1^TRFB – TERB2^1-107 (human, UniProt Q8NA31;Q8NHR7).
T1 sequence 1: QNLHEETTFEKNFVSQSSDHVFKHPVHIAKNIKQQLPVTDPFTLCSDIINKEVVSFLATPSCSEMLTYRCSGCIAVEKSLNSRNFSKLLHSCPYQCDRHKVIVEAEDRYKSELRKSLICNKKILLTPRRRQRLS
T1 sequence 2: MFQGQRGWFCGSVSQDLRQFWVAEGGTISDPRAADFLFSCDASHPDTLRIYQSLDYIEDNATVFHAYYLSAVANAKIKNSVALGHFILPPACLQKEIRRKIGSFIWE
The series is described as follows: pull-down.

Series [4] concerns the target T2, GST-TRF1^TRFH (human, UniProt P54274 62-265).
T2 sequence: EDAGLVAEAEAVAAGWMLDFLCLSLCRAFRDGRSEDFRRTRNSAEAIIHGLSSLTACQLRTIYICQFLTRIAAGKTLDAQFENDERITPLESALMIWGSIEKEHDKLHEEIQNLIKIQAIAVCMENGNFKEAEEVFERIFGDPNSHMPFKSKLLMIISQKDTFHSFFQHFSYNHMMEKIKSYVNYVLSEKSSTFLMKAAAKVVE
The series is described as follows: pull-down.

human TRF2^TRFH (human), sequence (Q15554 whole entry): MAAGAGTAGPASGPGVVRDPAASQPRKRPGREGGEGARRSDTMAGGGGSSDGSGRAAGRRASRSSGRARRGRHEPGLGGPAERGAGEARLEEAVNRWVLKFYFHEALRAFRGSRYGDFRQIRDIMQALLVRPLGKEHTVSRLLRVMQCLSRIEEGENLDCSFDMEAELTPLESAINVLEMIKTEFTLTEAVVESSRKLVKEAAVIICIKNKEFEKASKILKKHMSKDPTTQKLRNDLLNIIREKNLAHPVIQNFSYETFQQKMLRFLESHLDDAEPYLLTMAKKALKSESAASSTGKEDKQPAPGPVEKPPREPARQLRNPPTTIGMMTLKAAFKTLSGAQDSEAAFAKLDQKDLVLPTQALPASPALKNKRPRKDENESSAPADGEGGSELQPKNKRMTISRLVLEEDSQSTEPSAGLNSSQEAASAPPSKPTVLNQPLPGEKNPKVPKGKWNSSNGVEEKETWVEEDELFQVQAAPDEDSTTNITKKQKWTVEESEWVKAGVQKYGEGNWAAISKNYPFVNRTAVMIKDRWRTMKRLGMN

“His-Smt3-TERB1^TBM R652E (from UniProt Q8NA31 643-656) (peptide)” had a relative IC50 (normalized to TERB1^TBM WT) in series [1] of 1.05.
Take “His-Smt3-TERB1^TBM T648A (from UniProt Q8NA31 643-656) (peptide)”: in series [1], the relative IC50 (normalized to TERB1^TBM WT) was found to be 0.4.
Still for that read-out and setting: the value for “His-Smt3-TERB1^TBM I645F (from UniProt Q8NA31 643-656) (peptide)” was 2.6.
The same measure, in the same setting: the value for “His-Smt3-TERB1^TBM WT (from UniProt Q8NA31 643-656) (peptide)” was 1; that for “His-Smt3-TERB1^TBM I645E (from UniProt Q8NA31 643-656) (peptide)” was 2.25.

B1: human TRF1^TRFH (TRF homology domain of TRF1, aa 62-265) (domain or fragment)
chain: EDAGLVAEAEAVAAGWMLDFLCLSLCRAFRDGRSEDFRRTRNSAEAIIHGLSSLTACQLRTIYICQFLTRIAAGKTLDAQFENDERITPLESALMIWGSIEKEHDKLHEEIQNLIKIQAIAVCMENGNFKEAEEVFERIFGDPNSHMPFKSKLLMIISQKDTFHSFFQHFSYNHMMEKIKSYVNYVLSEKSSTFLMKAAAKVVE
modifications: biotin (biotin maleimide) on cysteines in the flow-cytometry bead assays; unlabelled in the pull-downs and the crystal
With B1, in series [2], the “stoichiometry N” value amounted to 2. Further, the binding result in series [3] is on record as “binds”.
Consider KKILLTPRRRQRLS [His-Smt3-TERB1^TBM WT], for which the binding result in series [4] was “binds”.
Same read-out and setting: the value for KKFLLTPRRRQRLS [His-Smt3-TERB1^TBM I645F] was “binds”.

B2: TERB1^TRFB - TERB2^1-107 complex WT (complex)
chain 1: QNLHEETTFEKNFVSQSSDHVFKHPVHIAKNIKQQLPVTDPFTLCSDIINKEVVSFLATPSCSEMLTYRCSGCIAVEKSLNSRNFSKLLHSCPYQCDRHKVIVEAEDRYKSELRKSLICNKKILLTPRRRQRLS
chain 2: MFQGQRGWFCGSVSQDLRQFWVAEGGTISDPRAADFLFSCDASHPDTLRIYQSLDYIEDNATVFHAYYLSAVANAKIKNSVALGHFILPPACLQKEIRRKIGSFIWE
For the molecule B2, the relative IC50 (normalized to TERB1^TRFB - TERB2^1-107 WT) in series [1] stood at 1.

B3: TERB1^TRFB - TERB2^1-107 I645F (complex)
chain 1: QNLHEETTFEKNFVSQSSDHVFKHPVHIAKNIKQQLPVTDPFTLCSDIINKEVVSFLATPSCSEMLTYRCSGCIAVEKSLNSRNFSKLLHSCPYQCDRHKVIVEAEDRYKSELRKSLICNKKFLLTPRRRQRLS
chain 2: MFQGQRGWFCGSVSQDLRQFWVAEGGTISDPRAADFLFSCDASHPDTLRIYQSLDYIEDNATVFHAYYLSAVANAKIKNSVALGHFILPPACLQKEIRRKIGSFIWE
Molecule B3 registered a relative IC50 (normalized to TERB1^TRFB - TERB2^1-107 WT) in series [1] of 0.8.

B4: TERB1^TRFB - TERB2^1-107 I645E (complex)
chain 1: QNLHEETTFEKNFVSQSSDHVFKHPVHIAKNIKQQLPVTDPFTLCSDIINKEVVSFLATPSCSEMLTYRCSGCIAVEKSLNSRNFSKLLHSCPYQCDRHKVIVEAEDRYKSELRKSLICNKKELLTPRRRQRLS
chain 2: MFQGQRGWFCGSVSQDLRQFWVAEGGTISDPRAADFLFSCDASHPDTLRIYQSLDYIEDNATVFHAYYLSAVANAKIKNSVALGHFILPPACLQKEIRRKIGSFIWE
For the molecule B4, the relative IC50 (normalized to TERB1^TRFB - TERB2^1-107 WT) in series [1] was 0.4.
